Test results reported in the supplement of paper PMC12764529.
± gives the half width of the 95% confidence interval.

What was measured:
[1] = folding stability dG unfold from trypsin proteolysis; higher = more stable
In short: (§1)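 Sequencing followed digestion of designed mini-proteins with trypsin and chymotrypsin, each at 11 concentrations in threefold dilutions together with a no-protease condition. The mini-proteins were under 80 residues, had no cysteine, sat in a PA-tagged cDNA display construct, and were kept only if AlphaFold2 dimer inter-PAE was above 15. From the counts, Bayesian fitting gave K50, and unfolding free energy was derived against a sequence-predicted unfolded-state K50 and a shared folded-state K50, per protease or combined.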

[2] = folding stability dG unfold from chymotrypsin proteolysis; higher = more stable
In short: as §1

[3] = folding stability dG unfold (combined trypsin and chymotrypsin); higher = more stable
In short: as §1

Sequence | folding stability dG unfold [1] | folding stability dG unfold [2] | folding stability dG unfold [3]
SAGGSAGGSAGMYVITIKLPSGEVIKIKTDPKNPEEAIKKLEPQYPPAEFEVKEVPENEISAGGSAGGSAGG [r11_103_JUSTAS] | 0.633 ± 0.041 kcal/mol | -0.198 ± 0.26 kcal/mol | 0.254 ± 0.18 kcal/mol
SAGGSANGKRVEVPITIFFYRRDPEDGKWEPIFPFEIPIRIPVPPGAEVTIEIEFTGNMFRITIEVSAGGSA [r15_537_TrROS] | 3.19 ± 0.11 kcal/mol | 4.53 ± 0.094 kcal/mol | 4.09 ± 0.13 kcal/mol
SAGGSAGGSAGDIDPEDDIFYLTVRLKDGVPFVLPVRYDDIPFIPPEFVEEATFHKPKDISAGGSAGGSAGG [r11_779_TrMRF] | 0.365 ± 0.096 kcal/mol | 0.0924 ± 0.18 kcal/mol | 0.246 ± 0.083 kcal/mol
SAGGSAMKKIPKENVEKVIEFTDKNGKKITIVYNKKTGKAYIFDKKTKKVIEIDMTEDEIKKLLKSSAGGSA [r15_810_TrROS_Hall] | 1.1 ± 0.023 kcal/mol | 2.13 ± 0.061 kcal/mol | 1.89 ± 0.054 kcal/mol
SAGGSAKLSAEEIAKLLKKLFPEVKEIKVKVEVNGKLYEVKIKVEKVKKKEKKKVEGMSEEEKKKLSAGGSA [r15_156_TrROS_Hall] | 2.06 ± 0.19 kcal/mol | 2.33 ± 0.1 kcal/mol | 2.35 ± 0.32 kcal/mol
SAGGSAGGSSMPFLNPDGHPAVLVEVDGSTGSLSVELRGPDGRPVLQVSVSVSGPATVTVRVGSAGGSAGGS [r12_960_JUSTAS] | 2.75 ± 0.11 kcal/mol | 2.56 ± 0.086 kcal/mol | 2.61 ± 0.079 kcal/mol
SAGGPTVVLRVRDADGNLVTVTFDEETKRITVTVVRDGKTRTLTVDMTVDEAIARLRDLFPVEVELVPSAGG [r13_141_TrROS_Hall] | 2.42 ± 0.051 kcal/mol | 3.05 ± 0.014 kcal/mol | 2.83 ± 0.041 kcal/mol
SAGGKKKKVKVKVVKVEKLENGTYKVVLEVEVDGKKITLVKEFKTKEDLEKKPKEIEITVEELKKLLKSAGG [r13_540_TrROS_Hall] | 2.46 ± 0.13 kcal/mol | 4.32 ± 0.22 kcal/mol | 3.87 ± 0.37 kcal/mol
SAGGSAPPPNTIPIRVKIEDKNGKWETITFPVKSGDDAKDFLNDNFPNVKVEYDPGAGWVTIEVPKSAGGSA [r15_313_TrROS] | -0.868 ± 0.29 kcal/mol | 0.2 ± 0.094 kcal/mol | -0.0942 ± 0.44 kcal/mol
SAGGSAGGDESSTPPVTTTSTTPLPDGSTVTVTSTTTYPDSTTTTTKTYSNGSTTTSTTTTPGSSAGGSAGG [r6_910_JUSTAS] | -0.0832 ± 0.051 kcal/mol | -0.803 ± 0.35 kcal/mol | -0.285 ± 0.13 kcal/mol
SAGGSAGGMVVGILTITDPATGSSETLVIPMPSEEEAVERAKELAEELEAKKGKIVKVEIRPRPSAGGSAGG [r6_787_JUSTAS] | 1.39 ± 0.064 kcal/mol | 1.5 ± 0.088 kcal/mol | 1.32 ± 0.19 kcal/mol
SAGGSAGGSAGMKLPEGWEIVAVYRDKETNKLYLIVRDTKTKKLLIVDLDTKKIISAEELSAGGSAGGSAGG [r11_268_TrROS_Hall] | 3.63 ± 0.18 kcal/mol | 4.1 ± 0.13 kcal/mol | 4.06 ± 0.1 kcal/mol
SAGGSAGGSAGPPNKPVYVRVRIQMPNGKKKTFWFKDVEQIEKNLKEEFGIRDIEIEPIKSAGGSAGGSAGG [r17_508_TrROS] | 1.62 ± 0.028 kcal/mol | 1.71 ± 0.026 kcal/mol | 1.67 ± 0.046 kcal/mol
SAGGSAGGSMTFEILPDGKTKTLTLDEAKELILNEVPPDTTVVNLDTGKVISAEEFLKLLGIKVSAGGSAGG [r6_937_JUSTAS] | 0.998 ± 0.016 kcal/mol | 0.943 ± 0.084 kcal/mol | 0.998 ± 0.084 kcal/mol
SAGGSAGGSAGMVLLKSEEEAEELRKPNVSLSVTPVPPVEVSEGDPNALAYEVELKPPLESAGGSAGGSAGG [r11_168_JUSTAS] | 1.49 ± 0.053 kcal/mol | 0.0585 ± 0.17 kcal/mol | 0.86 ± 0.11 kcal/mol
SAGGSAGGSAGGGVKYRVLLPKDVNPEKAAELLKPYGVKVVSIEEVEEGFYLIEVEKPESAGGSAGGSAGGS [r10_591_TrMRF] | 1.18 ± 0.032 kcal/mol | 1.59 ± 0.13 kcal/mol | 1.49 ± 0.13 kcal/mol
SAGGSAGGSAGGMVRITVEVDGKTYELVVEGMSLEEIEELLKKPNIKKAKVEPLSEEELKSAGGSAGGSAGG [r7_502_TrROS_Hall] | 1.24 ± 0.04 kcal/mol | 2.71 ± 0.09 kcal/mol | 2.32 ± 0.098 kcal/mol
SAGGSAGGSKLKPFPIKLPGDLSMTIVELPEDPRFIVTVWHPDGDKPIDSIEFEPDEFEANVGSAGGSAGGS [r20_190_TrMRF] | 0.285 ± 0.023 kcal/mol | 0.793 ± 0.033 kcal/mol | 0.591 ± 0.078 kcal/mol
SAGEKKEKEKEKKKEEEEKKKKEEEKKKEEEKKKEKTLKLEFTLPDGSKIEIEMTVEELKKLGLSPEELSAG [r5_12_TrROS_Hall] | 0.836 ± 0.14 kcal/mol | 1.29 ± 0.12 kcal/mol | 1.03 ± 0.42 kcal/mol
SAGGSAGGKISKEDLEKILEAIKEGKPITIVKVKVEKNENGEEVEKVEVIKTFTAEELKKLGIESAGGSAGG [r6_402_TrROS_Hall] | 1.73 ± 0.14 kcal/mol | 1.61 ± 0.073 kcal/mol | 1.43 ± 0.2 kcal/mol
SAGGSAGGSAGGGMTPVTTTTTVTVSPDATPVNFTTPDGTTVTVTPVPSSDTATVTTTVSSAGGSAGGSAGG [r7_796_JUSTAS] | 1.24 ± 0.06 kcal/mol | 0.104 ± 0.03 kcal/mol | 0.724 ± 0.06 kcal/mol
